From article PMC9482650, “Quantitative fragmentomics allow affinity mapping of interactomes” (Nature Communications, 2022)
Each block holds one binder with its values, some of them ahead of it.

How the values were obtained:
Test in all cases: holdup assay
Set-up in all cases: key: below the threshold = too weak to quantify, mostly under pKd 3.1 to 4
MAGI1_2, Q96QZ7 = molecular target: MAGI1_2, Q96QZ7
DLG5_1, Q8TDM6 = molecular target: DLG5_1, Q8TDM6
APBA1_2, Q02410 = molecular target: T1, APBA1_2, Q02410
T1 sequence (Q02410 742-832, limits assumed, looked up): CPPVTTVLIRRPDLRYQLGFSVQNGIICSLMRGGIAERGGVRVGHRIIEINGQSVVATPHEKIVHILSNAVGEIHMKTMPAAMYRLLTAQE

MPP2, Q14168 = molecular target: T2, MPP2, Q14168
T2 sequence (Q14168 180-250, limits assumed, looked up): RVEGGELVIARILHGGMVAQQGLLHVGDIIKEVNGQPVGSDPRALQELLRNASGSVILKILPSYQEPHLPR

SNTG1, Q9NSN8 = molecular target: T3, SNTG1, Q9NSN8
T3 sequence (Q9NSN8 52-150, limits assumed, looked up): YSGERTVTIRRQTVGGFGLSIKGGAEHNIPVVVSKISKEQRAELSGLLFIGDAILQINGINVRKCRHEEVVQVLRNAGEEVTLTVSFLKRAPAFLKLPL

NHERF4_1, Q86UT5-2 = molecular target: NHERF4_1, Q86UT5-2
Chain of NHERF4_1, Q86UT5-2 (Q86UT5 other isoform, or with tags, fused parts or gaps): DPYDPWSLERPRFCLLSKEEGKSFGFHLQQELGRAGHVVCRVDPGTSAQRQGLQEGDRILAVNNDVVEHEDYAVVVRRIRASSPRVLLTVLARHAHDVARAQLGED

GRIP1_7, Q9Y3R0 = molecular target: T4, GRIP1_7, Q9Y3R0
T4 sequence (Q9Y3R0 999-1096, limits assumed, looked up): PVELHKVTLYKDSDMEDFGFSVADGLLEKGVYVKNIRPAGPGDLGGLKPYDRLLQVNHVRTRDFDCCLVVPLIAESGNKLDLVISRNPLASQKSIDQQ

PTPN3, P26045 = molecular target: PTPN3, P26045
Chain of PTPN3, P26045 (P26045 505-587): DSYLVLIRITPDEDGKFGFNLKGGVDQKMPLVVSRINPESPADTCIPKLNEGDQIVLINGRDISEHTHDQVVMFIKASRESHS

FRMPD2_2, Q68DX3 = molecular target: FRMPD2_2, Q68DX3
Chain of FRMPD2_2, Q68DX3 (Q68DX3 944-1038): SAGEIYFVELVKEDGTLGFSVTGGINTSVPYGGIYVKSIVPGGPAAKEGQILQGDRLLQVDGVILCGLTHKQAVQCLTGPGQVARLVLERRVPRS

RAPGEF6, Q8TEU7 = molecular target: T5, RAPGEF6, Q8TEU7
T5 sequence (Q8TEU7 525-625, limits assumed, looked up): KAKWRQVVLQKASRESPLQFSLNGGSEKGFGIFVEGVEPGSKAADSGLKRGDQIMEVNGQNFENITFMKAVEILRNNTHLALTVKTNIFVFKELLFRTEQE

MAGI2_6, Q86UL8 = molecular target: MAGI2_6, Q86UL8
Chain of MAGI2_6, Q86UL8 (Q86UL8 1141-1229): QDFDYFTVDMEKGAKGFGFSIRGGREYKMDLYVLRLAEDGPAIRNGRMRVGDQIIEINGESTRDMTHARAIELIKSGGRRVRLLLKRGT

LIN7B, Q9HAP6 = molecular target: T6, LIN7B, Q9HAP6
T6 sequence (Q9HAP6 88-185, limits assumed, looked up): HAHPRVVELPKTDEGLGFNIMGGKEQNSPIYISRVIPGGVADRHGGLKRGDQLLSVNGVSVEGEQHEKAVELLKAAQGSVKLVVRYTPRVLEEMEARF

SHANK1, Q9Y566 = molecular target: T7, SHANK1, Q9Y566
T7 sequence (Q9Y566 658-767, limits assumed, looked up): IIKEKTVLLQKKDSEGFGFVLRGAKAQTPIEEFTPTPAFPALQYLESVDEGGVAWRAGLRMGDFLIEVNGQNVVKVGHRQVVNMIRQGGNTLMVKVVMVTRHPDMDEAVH

MPDZ_10, O75970 = molecular target: T8, MPDZ_10, O75970
T8 sequence (O75970 1624-1722, limits assumed, looked up): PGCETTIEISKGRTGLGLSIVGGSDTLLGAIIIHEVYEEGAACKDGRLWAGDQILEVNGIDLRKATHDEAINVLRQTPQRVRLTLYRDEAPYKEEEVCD

SNTA1, Q13424 = molecular target: T9, SNTA1, Q13424
T9 sequence (Q13424 82-180, limits assumed, looked up): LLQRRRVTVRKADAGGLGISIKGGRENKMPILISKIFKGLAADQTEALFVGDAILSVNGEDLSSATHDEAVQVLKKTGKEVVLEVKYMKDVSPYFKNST

IL16_1, Q14005 = molecular target: IL16_1, Q14005
Chain of IL16_1, Q14005 (Q14005 210-306): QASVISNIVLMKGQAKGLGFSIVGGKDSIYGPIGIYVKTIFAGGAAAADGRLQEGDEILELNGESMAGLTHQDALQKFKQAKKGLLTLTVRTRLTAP

NHERF3_3, Q5T2W1 = molecular target: T10, NHERF3_3, Q5T2W1
T10 sequence (Q5T2W1 238-333, limits assumed, looked up): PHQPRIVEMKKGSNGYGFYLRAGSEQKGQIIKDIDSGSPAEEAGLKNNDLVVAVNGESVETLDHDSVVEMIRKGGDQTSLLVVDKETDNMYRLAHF

LNX1_1, Q8TBB1 = molecular target: LNX1_1, Q8TBB1
Chain of LNX1_1, Q8TBB1 (Q8TBB1 261-371): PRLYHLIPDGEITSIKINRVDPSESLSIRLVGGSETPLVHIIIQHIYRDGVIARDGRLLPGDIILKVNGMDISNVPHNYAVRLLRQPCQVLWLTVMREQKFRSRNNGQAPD

PTPN13_1, Q12923 = molecular target: T11, PTPN13_1, Q12923
T11 sequence (Q12923 1088-1188, limits assumed, looked up): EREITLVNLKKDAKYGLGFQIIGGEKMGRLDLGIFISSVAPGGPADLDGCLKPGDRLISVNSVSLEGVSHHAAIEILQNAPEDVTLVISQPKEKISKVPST

MPP7, Q5T2T1 = molecular target: T12, MPP7, Q5T2T1
T12 sequence (Q5T2T1 134-230, limits assumed, looked up): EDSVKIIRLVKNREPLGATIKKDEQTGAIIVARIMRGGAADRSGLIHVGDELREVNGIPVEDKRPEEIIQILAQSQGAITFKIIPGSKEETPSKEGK

Inadl_6, Q8NI35 = molecular target: Inadl_6, Q8NI35
Chain of Inadl_6, Q8NI35 (Q8NI35 1058-1167): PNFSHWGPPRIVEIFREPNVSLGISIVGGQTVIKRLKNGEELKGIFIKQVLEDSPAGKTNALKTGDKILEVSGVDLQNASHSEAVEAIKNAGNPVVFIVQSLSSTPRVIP

SNX27, Q96L92 = molecular target: SNX27, Q96L92
PICK1, Q9NRD5 = molecular target: PICK1, Q9NRD5
Chain of PICK1, Q9NRD5 (Q9NRD5 17-115): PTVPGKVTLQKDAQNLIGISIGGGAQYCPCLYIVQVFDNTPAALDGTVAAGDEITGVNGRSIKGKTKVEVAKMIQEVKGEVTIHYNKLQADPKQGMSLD

NHERF4_4, Q86UT5 = molecular target: NHERF4_4, Q86UT5
Chain of NHERF4_4, Q86UT5 (Q86UT5 464-550): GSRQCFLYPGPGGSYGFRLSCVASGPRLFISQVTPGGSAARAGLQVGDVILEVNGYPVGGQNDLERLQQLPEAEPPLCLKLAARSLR

Inadl_4, Q8NI35 = molecular target: Inadl_4, Q8NI35
Chain of Inadl_4, Q8NI35 (Q8NI35 547-651): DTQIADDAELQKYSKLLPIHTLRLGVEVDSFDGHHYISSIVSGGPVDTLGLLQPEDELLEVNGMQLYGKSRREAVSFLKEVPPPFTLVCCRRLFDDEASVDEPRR

DLG4_3, P78352 = molecular target: DLG4_3, P78352
Chain of DLG4_3, P78352 (P78352 306-403): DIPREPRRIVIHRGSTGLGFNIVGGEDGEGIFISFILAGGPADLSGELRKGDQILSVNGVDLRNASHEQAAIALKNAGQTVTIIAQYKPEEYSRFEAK

[1] = plain residues with an end cap or a label only (N-terminal biotin on a linker: ahx)
[2] = plain residues with an end cap or a label only (N-terminal biotin on a linker: ado-ado)
[3] = plain residues with an end cap or a label only (N-terminal biotin on a linker: ttds)

Chain of DLG5_1, Q8TDM6 (Q8TDM6 617-713): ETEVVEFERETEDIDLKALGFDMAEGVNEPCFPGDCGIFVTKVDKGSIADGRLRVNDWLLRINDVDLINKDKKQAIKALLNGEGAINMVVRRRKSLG
Chain of MAGI1_2, Q96QZ7 (Q96QZ7 456-580): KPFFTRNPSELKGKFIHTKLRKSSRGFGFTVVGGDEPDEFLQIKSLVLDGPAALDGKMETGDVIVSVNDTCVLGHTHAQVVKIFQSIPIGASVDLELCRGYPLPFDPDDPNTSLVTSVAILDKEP

B2: CBY2, Q8NA61 (peptide)
chain: SQDPKKPSRV
pKd (MAGI1_2, Q96QZ7; [2]): below the threshold
pKd (DLG5_1, Q8TDM6; [2]): below the threshold
pKd (APBA1_2, Q02410; [2]): 3.97
pKd (MPP2, Q14168; [2]): below the threshold
pKd (SNTG1, Q9NSN8; [2]): below the threshold
pKd (NHERF4_1, Q86UT5-2; [2]): below the threshold
pKd (GRIP1_7, Q9Y3R0; [2]): below the threshold
pKd (PTPN3, P26045; [2]): below the threshold
pKd (FRMPD2_2, Q68DX3; [2]): below the threshold
pKd (RAPGEF6, Q8TEU7; [2]): below the threshold
pKd (MAGI2_6, Q86UL8; [2]): below the threshold
pKd (LIN7B, Q9HAP6; [2]): below the threshold
pKd (SHANK1, Q9Y566; [2]): below the threshold
pKd (MPDZ_10, O75970; [2]): 3.7
pKd (SNTA1, Q13424; [2]): 3.48
pKd (IL16_1, Q14005; [2]): below the threshold
pKd (NHERF3_3, Q5T2W1; [2]): below the threshold
pKd (LNX1_1, Q8TBB1; [2]): 3.5
pKd (PTPN13_1, Q12923; [2]): below the threshold
pKd (MPP7, Q5T2T1; [2]): below the threshold
pKd (Inadl_6, Q8NI35; [2]): below the threshold
pKd (SNX27, Q96L92; [2]): 3.67
pKd (PICK1, Q9NRD5; [2]): 4.21
pKd (NHERF4_4, Q86UT5; [2]): 3.67
pKd (Inadl_4, Q8NI35; [2]): below the threshold
pKd (DLG4_3, P78352; [2]): below the threshold

B3: DGKI, O75912 (peptide)
chain: IGHEDLETAV
pKd (MAGI1_2, Q96QZ7; [2]): below the threshold
pKd (DLG5_1, Q8TDM6; [2]): below the threshold
pKd (APBA1_2, Q02410; [2]): 4.03
pKd (MPP2, Q14168; [2]): below the threshold
pKd (SNTG1, Q9NSN8; [2]): 5.43
pKd (NHERF4_1, Q86UT5-2; [2]): below the threshold
pKd (GRIP1_7, Q9Y3R0; [2]): below the threshold
pKd (PTPN3, P26045; [2]): 5.02
pKd (FRMPD2_2, Q68DX3; [2]): 5.22
pKd (RAPGEF6, Q8TEU7; [2]): below the threshold
pKd (MAGI2_6, Q86UL8; [2]): 4.59
pKd (LIN7B, Q9HAP6; [2]): 4.11
pKd (SHANK1, Q9Y566; [2]): 4.41
pKd (MPDZ_10, O75970; [2]): below the threshold
pKd (SNTA1, Q13424; [2]): 5.18
pKd (IL16_1, Q14005; [2]): 4.26
pKd (NHERF3_3, Q5T2W1; [2]): below the threshold
pKd (LNX1_1, Q8TBB1; [2]): 3.58
pKd (PTPN13_1, Q12923; [2]): below the threshold
pKd (MPP7, Q5T2T1; [2]): below the threshold
pKd (Inadl_6, Q8NI35; [2]): 4.1
pKd (SNX27, Q96L92; [2]): 5.73
pKd (PICK1, Q9NRD5; [2]): below the threshold
pKd (NHERF4_4, Q86UT5; [2]): below the threshold
pKd (Inadl_4, Q8NI35; [2]): below the threshold
pKd (DLG4_3, P78352; [2]): below the threshold

Further lines, results first:

pKd (MAGI1_2, Q96QZ7; [1]): 3.52
pKd (DLG5_1, Q8TDM6; [1]): below the threshold
pKd (APBA1_2, Q02410; [1]): below the threshold
pKd (MPP2, Q14168; [1]): below the threshold
pKd (SNTG1, Q9NSN8; [1]): below the threshold
pKd (NHERF4_1, Q86UT5-2; [1]): below the threshold
pKd (GRIP1_7, Q9Y3R0; [1]): below the threshold
pKd (PTPN3, P26045; [1]): 4.16
pKd (FRMPD2_2, Q68DX3; [1]): below the threshold
pKd (RAPGEF6, Q8TEU7; [1]): below the threshold
pKd (MAGI2_6, Q86UL8; [1]): 3.66
pKd (LIN7B, Q9HAP6; [1]): below the threshold
pKd (SHANK1, Q9Y566; [1]): below the threshold
pKd (MPDZ_10, O75970; [1]): 3.81
pKd (SNTA1, Q13424; [1]): 3.65
pKd (IL16_1, Q14005; [1]): below the threshold
pKd (NHERF3_3, Q5T2W1; [1]): below the threshold
pKd (LNX1_1, Q8TBB1; [1]): below the threshold
pKd (PTPN13_1, Q12923; [1]): below the threshold
pKd (MPP7, Q5T2T1; [1]): below the threshold
pKd (Inadl_6, Q8NI35; [1]): below the threshold
pKd (SNX27, Q96L92; [1]): 3.96
pKd (PICK1, Q9NRD5; [1]): below the threshold
pKd (NHERF4_4, Q86UT5; [1]): below the threshold
pKd (Inadl_4, Q8NI35; [1]): below the threshold
pKd (DLG4_3, P78352; [1]): below the threshold
B1: MTMR1, Q13613 (peptide)
chain: HSATSVHTSV

pKd (MAGI1_2, Q96QZ7; [3]): 3.91
pKd (DLG5_1, Q8TDM6; [3]): below the threshold
pKd (APBA1_2, Q02410; [3]): 3.32
pKd (MPP2, Q14168; [3]): below the threshold
pKd (SNTG1, Q9NSN8; [3]): 3.76
pKd (NHERF4_1, Q86UT5-2; [3]): 3.36
pKd (GRIP1_7, Q9Y3R0; [3]): 3.49
pKd (PTPN3, P26045; [3]): 4.75
pKd (FRMPD2_2, Q68DX3; [3]): 3.31
pKd (RAPGEF6, Q8TEU7; [3]): below the threshold
pKd (MAGI2_6, Q86UL8; [3]): below the threshold
pKd (LIN7B, Q9HAP6; [3]): 3.49
pKd (SHANK1, Q9Y566; [3]): below the threshold
pKd (MPDZ_10, O75970; [3]): below the threshold
pKd (SNTA1, Q13424; [3]): 4.06
pKd (IL16_1, Q14005; [3]): below the threshold
pKd (NHERF3_3, Q5T2W1; [3]): below the threshold
pKd (LNX1_1, Q8TBB1; [3]): below the threshold
pKd (PTPN13_1, Q12923; [3]): below the threshold
pKd (MPP7, Q5T2T1; [3]): below the threshold
pKd (Inadl_6, Q8NI35; [3]): below the threshold
pKd (SNX27, Q96L92; [3]): 4.23
pKd (PICK1, Q9NRD5; [3]): below the threshold
pKd (NHERF4_4, Q86UT5; [3]): below the threshold
pKd (Inadl_4, Q8NI35; [3]): below the threshold
pKd (DLG4_3, P78352; [3]): 4.87
B4: RALBP1, Q15311 (peptide)
chain: PSRDRKETSI

pKd (MAGI1_2, Q96QZ7; [3]): below the threshold
pKd (DLG5_1, Q8TDM6; [3]): below the threshold
pKd (APBA1_2, Q02410; [3]): below the threshold
pKd (MPP2, Q14168; [3]): below the threshold
pKd (SNTG1, Q9NSN8; [3]): 3.49
pKd (NHERF4_1, Q86UT5-2; [3]): below the threshold
pKd (GRIP1_7, Q9Y3R0; [3]): below the threshold
pKd (PTPN3, P26045; [3]): 3.85
pKd (FRMPD2_2, Q68DX3; [3]): below the threshold
pKd (RAPGEF6, Q8TEU7; [3]): 3.48
pKd (MAGI2_6, Q86UL8; [3]): below the threshold
pKd (LIN7B, Q9HAP6; [3]): below the threshold
pKd (SHANK1, Q9Y566; [3]): 4.95
pKd (MPDZ_10, O75970; [3]): below the threshold
pKd (SNTA1, Q13424; [3]): 3.63
pKd (IL16_1, Q14005; [3]): below the threshold
pKd (NHERF3_3, Q5T2W1; [3]): below the threshold
pKd (LNX1_1, Q8TBB1; [3]): below the threshold
pKd (PTPN13_1, Q12923; [3]): below the threshold
pKd (MPP7, Q5T2T1; [3]): below the threshold
pKd (Inadl_6, Q8NI35; [3]): below the threshold
pKd (SNX27, Q96L92; [3]): 5.15
pKd (PICK1, Q9NRD5; [3]): below the threshold
pKd (NHERF4_4, Q86UT5; [3]): below the threshold
pKd (Inadl_4, Q8NI35; [3]): below the threshold
pKd (DLG4_3, P78352; [3]): below the threshold
B5: PODXL, O00592 (peptide)
chain: DLDEEEDTHL
